Source: patent US12583888B2, “Bi-specific extracellular matrix binding peptides and methods of use thereof” (University of Tartu, priority 2019, dated 2026)

What was measured:
P13 tumor = conditions: i.v. equimolar mix, 2 h circulation
Excerpt: (§1) In vivo play-off was used to evaluate systemic homing of peptide phage to xenograft tumor models. The in vitro selected candidate TNC-C binding peptides, phages displaying published tumor homing peptides, and control peptides were amplified and purified by precipitation with PEG-8000 (Sigma-Aldrich, St. Louis, MO, USA), followed by CsCl2 gradient ultracentrifugation and dialysis. The amplified phage peptides were pooled in equimolar quantities, and injected intravenously (final 1×10^10 pfu in 200 μl PBS) in tumor-bearing mice for two hour circulation, after which mice were anesthetized with 2.5% avertin and intracardially perfused with DMEM intracardially. The tumors and organs were collected in lysogeny broth (LB)+1% NP40, and the tissues were homogenized using a hand-held homogenizer for phage peptide rescue. Phages in the tissue lysates were amplified in E. coli, purified by precipitation with PEG-8000 and DNA was extracted using a DNA extraction kit (High Pure PCR Template Preparation Kit; Roche, Basel, Switzerland). Next-generation sequencing of phage genomic DNA evaluated the representation of each phage in input mixture, in tumor and control organs with Ion Torrent system (Thermo Fisher Scientific, Waltham, MA, USA). The next generation deep sequencing of phage library was done using Ion Torrent according to the manufacturer's protocol with slight modification. The FASTQ data from Ion Torrent was processed by a custom python script that identified the barcodes, constant flanking residues, and extracted the reads of the correct length.

P3 stem cell-like tumor = conditions: i.v. equimolar mix, 2 h circulation
Excerpt: as §1

[1] = system: PC3 prostate carcinoma xenografts; conditions: i.v. equimolar mix, 2 h circulation
Excerpt: as §1

U87-MG glioblastoma = conditions: i.v. equimolar mix, 2 h circulation
Excerpt: as §1

WT-GBM tumor = conditions: i.v. equimolar mix, 2 h circulation
Excerpt: as §1

normal brain = conditions: i.v. equimolar mix, 2 h circulation
Excerpt: as §1

FN-EDB and TNC-C [2] = experiment: Peptide-phage binding to FN-EDB- and TNC-C-coated magnetic beads; conditions: phage-displayed peptide
Description: (§2) To identify bispecific peptides that interact with both TNC-C and FN-EDB, cross screens were performed on both targets. During the first round of selection, microtiter plates coated with 20 μg/ml recombinant purified TNC-C were blocked with PBS containing 1% bovine serum albumin (BSA), followed by incubation with 5×10^8 pfu of phages in PBS at 4° C. overnight, by washes to remove background, and by phage rescue and amplification in BLT5403 strain of E. coli (Novagen, EMD Biosciences, MA, USA) (Teesalu et al., Methods Enzymol. 503:35-56 (2012)). The following rounds of biopanning were carried on Ni-NTA Magnetic Agarose Beads (QIAGEN, Hilden, Germany) coated with hexahistidine-tagged FN-EDB (3 μg/μl beads) at room temperature. After 5 rounds of selection, a set of random clones was sequenced, and individual peptide-phage clones and control (G7 peptide-displaying or insertless) phages were incubated with FN-EDB and TNC-C-coated magnetic beads. RPARPAR phage (SEQ ID NO:5) and His-tagged NRP-1 b1b2 domain were used as positive control (Teesalu et al., Proc. Natl. Acad. Sci. U.S.A 106:16157-62 (2009)). To address the specificity of the peptide phage binding to the FN-EDB and TNC-C, the protein-coated beads were pre-incubated with 20 μg/ml blocking rabbit polyclonal antibodies.

NRP-1 b1b2 domain = target: T1, NRP-1 b1b2 domain (Homo sapiens, UniProt O14786); experiment: PL1 phage binding to recombinant control protein NRP-1; conditions: phage-displayed peptide
T1 construct: His-tagged NRP-1 b1b2 domain were used as positive control; His tag; made in house
T1 sequence (O14786 273-586 limits assumed): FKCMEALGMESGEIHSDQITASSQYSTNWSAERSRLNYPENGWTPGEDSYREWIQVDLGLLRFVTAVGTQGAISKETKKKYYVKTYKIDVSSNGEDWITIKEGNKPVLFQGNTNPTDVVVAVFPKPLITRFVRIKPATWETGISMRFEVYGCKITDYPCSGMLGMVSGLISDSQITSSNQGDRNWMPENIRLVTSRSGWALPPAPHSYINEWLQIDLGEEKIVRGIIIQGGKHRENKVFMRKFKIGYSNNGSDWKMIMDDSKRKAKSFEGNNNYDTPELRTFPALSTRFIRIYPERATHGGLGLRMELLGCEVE
Description: as §2

FN-EDB and TNC-C [3] = experiment: Cell-free peptide binding assay (immobilized FAM-peptide, His-tagged protein, ELISA)
Description: The FAM-labeled peptides were coated on ELISA plates (Nunc Maxisorp, Thermo Fisher Scientific Inc., MA, USA), blocked with PBS containing 1% BSA, and incubated with recombinant proteins at 2 μg/well in PBS for 6 h. The protein was detected using an anti-His-tag antibody, followed by horseradish peroxidase-conjugated secondary antibody, chromogenic reaction, and measurement of absorbance at 450 nm with a microplate reader (Tecan Austria GmbH, Gradig, Austria).

[4] = system: Neuropilin 1 b1b2 domain (NRP1) and Fn-EDB; experiment: PL2 phage binding to purified NRP1 together with Fn-EDB
Description: For cell-free binding studies using individually amplified phage clones; phage was incubated with Fn-EDB coated magnetic beads as described above. RPARPAR phage on NRP-1-coated beads was used as a positive control (Teesalu et al., 2009), Nucleolin (NCL) and Tenascin C-C domain (TNC-C) were used as negative control. Phage clones displaying heptaglycine peptide (GGGGGGG, G7 (SEQ ID NO:20)) or insert less phage clones were used as negative controls.

Binding Specificity (FN-EDB and TNC-C [2])	interaction of phage with recombinant control protein NRP-1 (NRP-1 b1b2 domain)	Substance	Representation of phage in tumors (fold G7 control phage), P13 (P13 tumor) [fold]	Representation of phage in tumors (fold G7 control phage), P3 SCL (P3 stem cell-like tumor) [fold]	Representation of phage in tumors (fold G7 control phage), PC3 [1] [fold]	Representation of phage in tumors (fold G7 control phage), U87-MG (U87-MG glioblastoma) [fold]	Representation of phage in tumors (fold G7 control phage), WT-GBM (WT-GBM tumor) [fold]	Representation of phage in control brain tissue (fold G7 control phage), Norm. brain (normal brain) [fold]	binding to FN-EDB and TNC-C on phage and as synthetic FAM-labeled peptide (FN-EDB and TNC-C [3])	binding of phage-displayed peptide to Fn-EDB and NRP1 [4]
		RGRLVRA	0.4	0.3	1.8	0.8	3	0.1		
		GGGGGGG [reference compound]	1.0	1.0	1.0	1.0	1.0	1		
		AGRGRLVRAKLAAALE	0.1	0.4	0.3	0.2	23.9	0.0		
TNC-C + FN-EDB		PPRRGLIKLKTSSNTKENSVVASLRP [PL5]								
		GRLTRVR	0.5	0.5	0.9	0.9	1.9	0.1		
		VGRVRFSRKLAAALE	0.5	0.4	1.2	0.7	2.5	0.1		
TNC-C + FN-EDB	did not interact	PPRRGLIKLKTS [PL1]							retained the ability to bind to both FN-EDB and TNC-C	
		CAGRGRLVRC	0.4	0.2	0.4	0.1	0.9	0.0		
		RGRLVRAK	0.1	0.3	3.0	0.5	23.8	0.2		
		AGVGRLRRAKLAAALE	0.9	0.9	1.4	1.0	2.3	0.2		
		CRGVLRRAKLAAALE	0.4	0.4	0.9	0.7	1.6	0.1		
		CSRRGILRAKPAAALE	0.8	0.9	1.2	1.1	1.5	0.1		
		RRLVRVA	0.4	0.3	0.9	0.6	1.4	0.1		
		TSKQNSR [PL2]								bind specifically to both Fn-EDB and NRP1
